According to article PMC10164722, “Crystal Structure of Mesaconyl-CoA Hydratase from Methylorubrum extorquens CM4” (Journal of Microbiology and Biotechnology, 2023):

Molecular target: the molecule itself
Assay: crystal structure; MeMeaC with malic acid, 1.95 Å, space group P6_(3), one molecule in the asymmetric unit; trimer by crystallographic symmetry (PDBePISA also suggested a trimer)

B1: mesaconyl-CoA hydratase from Methylorubrum extorquens CM4 (enzyme, UniProt C5B1K4 1-348, looked up)
chain: MKTNPGRFFEDFRLGETIRHATPRTVTTGDVALYTALYGPRFAVQSSDAFAKAIGHPASPLDDLLTFHVVFGKTVPDVSLNALANLGYAEGGFHRPVYPGETLSTVSEVIGLKESSNRQTGVVYVRSTGSDASGQTVLSYCRWVLVRKRDPEAKIAEEHVPQLAKVVNPADLAHALPPLDPAAYDNALAGSPHRFADYAVGEKIDHVDGMTVEEAEHQIATRLFQNTAKVHFDAVATKETKFGKRLIYGGHVISLARALSFNGLANAFAIGGINAGRHVAPLFAGDTVYAWSEVLETAELPGRSDIGALRLRTVATKNQSCGAYPDKQGEGYDPSVILDLDYWAFIPR
notes: Mesaconyl-CoA hydratase MeaC (locus Mchl_4075) of Methylorubrum extorquens CM4; subdomains printed as residues 1~147 (MeaC^N), 148~190 (MeaC^Br) and 191~348 (MeaC^C); Surmised: cloning into pET30a by NdeI/XhoI with a reverse primer that has no stop codon would put the vector's His6 tag (after Leu-Glu) at the C-terminus; also called MeMeaC; MeaC; source: E. coli BL21(DE3)-T1R, purified (Ni-NTA, …)
stoichiometry N: 3
